The labels stand for the following.
B1: I540-S, scrambled hTERT I540 peptide (HFLLWKLIA), negative control (peptide)
peptide: HFLLWKLIA
B2: A98-Id idiotype peptide (AHTKDGFNF), negative control (peptide)
peptide: AHTKDGFNF
notes: Only the start position aa98 is printed
B3: hTERT peptide R865 (RLVDDFLLV) (peptide)
peptide: RLVDDFLLV
notes: Only the start position aa865 is printed; the end of the range follows from the length of the nonapeptide
B4: hTERT peptide I540 (ILAKFLHWL) (peptide)
peptide: ILAKFLHWL
notes: Only the start position aa540 is printed; the end of the range follows from the length of the nonapeptide; also called hTERT I540
B5: hTERT peptide E555 (ELLRSFFYV) (peptide)
peptide: ELLRSFFYV
notes: Only the start position aa555 is printed; the end of the range follows from the length of the nonapeptide

The first experiment concerns the target T1, human HLA-A*0201 (human).
T1 construct: In the T2 assay the MHC stands on the cell surface; also called HLA-A2
Put plainly: T2 cell assay: peptide plus beta2-microglobulin pulsed 18 h, HLA-A*0201 surface expression by flow cytometry with mAb BB7.2. A general note: A flow cytometer gives signals particle by particle.
With B1, the binding result is listed as “no binding (tested: 50 µg/ml)”.

B2: the binding result is listed as “no binding (tested: 50 µg/ml)”.

For another experiment, the target named is T1, human HLA-A*0201. Put plainly: T2 cell assay, 50 µg/ml peptide plus 5 µg/ml b2m for 18 h, flow cytometry with mAb BB7.2; (MFI with peptide - MFI without)/MFI without.
As for B1, the “Fluorescence Index” value was 0.2.

Take B2: the “Fluorescence Index” value was 0.

Turning to B3, the “Fluorescence Index” value was 2.2.

Consider B4, for which the “Fluorescence Index” value was found to be 3.1.

With B5, the “Fluorescence Index” value turned out to be 2.2.

For the origin of these results see patent publication US7851591 (Dana-Farber, dated 2010).
